Data: patent US9416162B2, “Peptides having reduced toxicity that stimulate cholesterol efflux” (The Regents of the University of California, priority 2013, dated 2016)
Non-standard residues stand in square brackets, D forms with d. No end group written: not given here. Cit = NC(=O)NCCC[C@H](N)C(=O)O

Tests used:
Wistar rats = test: High-dose IV toxicity of ATI-5261 in rats (plasma ALT, AST, TG, unesterified cholesterol); assay type: in vivo, rat
Procedure: Peptides or peptidomimetics of the invention can be evaluated for toxicity using known assays. Examples of such assays are illustrated in the Examples section. Toxicity is typically assayed in a rat, rabbit, mouse, monkey or dog model. In an illustrative assay, such as that described in Example 1, a peptide is administered intravenously using a rabbit or rat model at doses of 3, 30, and 300 mg/kg and vehicle alone is also administered at 48 hour intervals for a total of four injections. Safety chemistry panels including plasma alanine aminotransferase (ALT), aspartate amino transferase (AST), and creatine kinase (CK) can then be determined in the blood. The presence of elevated levels of these enzymes in the blood compared to control normal values is indicative of toxicity. A peptide of the invention is typically considered to be non-toxic or to have little toxicity, when the results using the highest dose, 300 mg/kg in this illustrative assay, are equivalent (fall within the standard deviation) of the values measured for the control animals that received vehicle alone, or are no more than 2 or 3 times background obtained with vehicle alone. In some embodiments, a toxicity assay is performed where the toxicity of a peptide of the invention is compared to that to ATI-5261. […]
Cytotoxicity of an HDL mimetic peptide ATI-5261 at high doses was evaluated in rats and rabbits (FIG. 1). […]

apoE−/− mice = test: Atherosclerosis in apoE−/− mice on high-fat western diet, whole aorta Oil-Red O staining; assay type: in vivo, mouse
Procedure: Male apoE^−/− mice at 8 weeks of age were fed a high-fat western diet for 14 weeks. Mice were subsequently randomized to either a control group to receive IP injection of vehicle alone or lipid-free peptide (30 mg/kg) at 48 hour intervals for 6 weeks. […] The extent of whole aorta covered with fatty lesions is shown, determined by Oil-Red O staining. Values are means±SD, n=10 mice per group.
CS6253, another synthesis batch of T5237-4, was administered IP at 10 mg/kg for 10 weeks showing again reduction of substantial atherosclerosis in apoE^−/− mice (FIG. 36). Male apoE^−/− mice at 8 weeks of age were fed a high-fat western diet for 14 weeks. Mice were subsequently randomized to either a control group to receive IP injection of vehicle alone or lipid-free CS6253 (10 mg/kg) at 48 hour intervals for 10 weeks while the mice remained on high-fat western diet. The extent of whole aorta covered with fatty lesions is shown, determined by Oil-Red O staining. Values are means±SD, n=10 mice per group.
CS6253 administered SC also reduce substantial atherosclerosis in apoE KO mice. Male apoE−/− mice at 8 weeks of age were fed a high-fat western diet for 14 weeks (FIG. 37). One group was terminated before treatment start as baseline control. Mice were subsequently randomized to one of 3 arms to receive subcutaneous (SC) injection alternate days for 6 weeks; vehicle alone, CS6253 30 mg/kg or CS6253 60 mg/kg. During the first 4 treatment weeks the mice remained on high-fat western diet while during the last two weeks of treatment they were switched to chow diet. The extent of whole aorta covered with fatty lesions is shown, determined by Oil-Red O staining. Values are means±SD, n=10 mice per group.

ABCA1 = molecular target: T1, ABCA1 (Mus musculus, UniProt P41233); test: ABCA1 protein stabilization, western blot of J774 whole-cell lysates; assay type: cell-based; details: J774 cells after cAMP treatment, continued presence of peptide
T1 construct: treated (18 h) with a cAMP analog to induce ABCA1 protein expression; endogenous in cells; host or cells: J774 macrophages
T1 sequence (P41233 whole entry): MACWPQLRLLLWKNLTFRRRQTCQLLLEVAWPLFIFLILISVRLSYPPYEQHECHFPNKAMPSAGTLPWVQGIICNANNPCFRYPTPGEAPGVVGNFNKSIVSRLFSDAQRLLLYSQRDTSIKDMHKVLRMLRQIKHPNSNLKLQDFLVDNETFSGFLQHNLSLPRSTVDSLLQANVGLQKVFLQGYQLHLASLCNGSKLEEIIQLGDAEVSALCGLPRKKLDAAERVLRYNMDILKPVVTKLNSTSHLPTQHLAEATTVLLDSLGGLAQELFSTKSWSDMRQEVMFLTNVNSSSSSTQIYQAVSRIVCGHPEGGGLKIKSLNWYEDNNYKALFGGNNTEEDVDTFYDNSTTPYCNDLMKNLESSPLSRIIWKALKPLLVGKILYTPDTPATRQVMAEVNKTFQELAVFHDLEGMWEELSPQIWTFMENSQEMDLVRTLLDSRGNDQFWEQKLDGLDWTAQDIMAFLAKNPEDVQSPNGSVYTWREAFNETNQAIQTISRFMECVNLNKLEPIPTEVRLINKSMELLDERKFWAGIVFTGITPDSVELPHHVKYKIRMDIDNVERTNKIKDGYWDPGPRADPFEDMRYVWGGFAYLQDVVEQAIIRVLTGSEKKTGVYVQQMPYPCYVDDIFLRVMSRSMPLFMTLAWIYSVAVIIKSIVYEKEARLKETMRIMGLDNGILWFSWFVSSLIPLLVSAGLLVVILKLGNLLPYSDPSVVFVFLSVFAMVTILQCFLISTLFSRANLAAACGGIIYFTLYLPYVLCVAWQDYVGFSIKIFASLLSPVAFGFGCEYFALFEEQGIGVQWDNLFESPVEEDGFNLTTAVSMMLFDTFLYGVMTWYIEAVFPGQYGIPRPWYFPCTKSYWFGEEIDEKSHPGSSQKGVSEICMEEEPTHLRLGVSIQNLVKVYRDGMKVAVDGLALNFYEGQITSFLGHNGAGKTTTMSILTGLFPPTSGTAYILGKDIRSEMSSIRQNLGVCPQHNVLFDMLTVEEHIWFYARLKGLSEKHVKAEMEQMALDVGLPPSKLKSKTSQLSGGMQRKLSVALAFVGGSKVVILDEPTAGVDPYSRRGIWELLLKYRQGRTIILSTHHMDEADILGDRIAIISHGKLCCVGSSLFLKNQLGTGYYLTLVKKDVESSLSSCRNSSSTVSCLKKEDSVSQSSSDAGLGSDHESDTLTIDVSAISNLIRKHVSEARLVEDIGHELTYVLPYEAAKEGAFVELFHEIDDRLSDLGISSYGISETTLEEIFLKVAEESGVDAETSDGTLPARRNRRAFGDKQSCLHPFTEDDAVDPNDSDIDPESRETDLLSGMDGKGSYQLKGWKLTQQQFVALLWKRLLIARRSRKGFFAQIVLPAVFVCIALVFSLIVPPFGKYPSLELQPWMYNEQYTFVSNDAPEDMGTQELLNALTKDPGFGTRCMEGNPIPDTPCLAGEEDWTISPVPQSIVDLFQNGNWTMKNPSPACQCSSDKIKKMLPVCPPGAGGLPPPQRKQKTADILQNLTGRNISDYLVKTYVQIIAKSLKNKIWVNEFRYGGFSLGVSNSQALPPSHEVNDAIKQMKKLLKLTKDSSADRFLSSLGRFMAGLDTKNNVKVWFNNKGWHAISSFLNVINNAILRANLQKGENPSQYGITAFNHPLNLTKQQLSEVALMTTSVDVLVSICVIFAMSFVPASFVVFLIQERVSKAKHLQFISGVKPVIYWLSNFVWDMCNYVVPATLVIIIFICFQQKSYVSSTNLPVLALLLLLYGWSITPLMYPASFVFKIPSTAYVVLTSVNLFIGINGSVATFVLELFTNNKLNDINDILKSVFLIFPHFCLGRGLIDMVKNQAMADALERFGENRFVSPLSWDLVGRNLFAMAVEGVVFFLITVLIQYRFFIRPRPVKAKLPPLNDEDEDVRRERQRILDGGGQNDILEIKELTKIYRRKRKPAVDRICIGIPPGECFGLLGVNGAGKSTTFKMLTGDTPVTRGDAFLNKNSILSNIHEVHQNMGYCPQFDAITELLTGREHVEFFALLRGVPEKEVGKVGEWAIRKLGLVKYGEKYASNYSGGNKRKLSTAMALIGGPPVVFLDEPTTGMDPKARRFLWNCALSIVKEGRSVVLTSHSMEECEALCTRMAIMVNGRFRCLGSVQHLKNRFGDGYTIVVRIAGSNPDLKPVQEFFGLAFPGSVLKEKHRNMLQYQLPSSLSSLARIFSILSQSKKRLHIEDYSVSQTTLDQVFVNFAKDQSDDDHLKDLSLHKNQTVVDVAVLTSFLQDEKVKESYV
Procedure: In some embodiments, the stabilization of ABCA is measured by direct measurement of ABCA (e.g., ABCA protein, or nucleic acid) using a cell based assay. Cell based assays can be performed in any cells in which ABCA is expressed (e.g., J774 macrophages), including cells which have been transfected with ABCA (e.g. HeLa cells). Any cell type can be used. For example, J774 macrophages can be used to assess relative ABCA1 protein levels in the presence and absence of polypeptides of the invention. The cells are first contacted with a compound that will induce ABCA (e.g., cAMP or a cAMP analogue such as, 8-bromo-cAMP) to upregulate ABCA (e.g., ABCA1) expression, then exposed to […] polypeptides of the invention in the absence of the cAMP stimulus to evaluate whether ABCA1 protein was stabilized or degraded. Relative levels of ABCA1 protein can be assessed using any means known in the art including, e.g., immunoblot analysis of cell membranes (Oram et al., J. Biol. Chem., 278:52379-52385 (2003)) or hybridization of nucleic acid probes to ABCA mRNA.
J774 macrophages were used for experiments. Panel A—Cells were labeled (48 h) with 3H cholesterol and treated with (right bars) and without (left bars) a cAMP analog to modulate ABCA1 expression. […]

ATI-5261: HDL mimetic peptide, parent peptide; triglyceride elevating and muscle toxic peptide used as positive control (EVRSKLEEWFAAFREFAEEFLARLKS) [reference compound]
plasma triglycerides and cholesterol (Wistar rats; male Wistar rats, IV 3, 30, 300 mg/kg): increased plasma triglycerides and cholesterol | cytotoxic response (plasma ALT and AST) (Wistar rats; male chow-fed Wistar rats, IV 3, 30 and 300 mg/kg at 48 h intervals, 4 injections): induced a cytotoxic response

EVCitSKLEEWLAALCitELAEELLARLKS (SEQ ID NO:2) (EV[Cit]SKLEEWLAAL[Cit]ELAEELLARLKS) [CS6253, citrulline form of LeuATI-5261, R3,14→Citrulline, 26-mer]
extent of whole aorta covered with fatty lesions (apoE−/− mice; IP 10 mg/kg at 48 hour intervals for 10 weeks): reduced atherosclerosis | extent of whole aorta covered with fatty lesions (apoE−/− mice; IP 30 mg/kg at 48 hour intervals for 6 weeks): reduced atherosclerosis | extent of whole aorta covered with fatty lesions (apoE−/− mice; SC 30 mg/kg or 60 mg/kg alternate days for 6 weeks): reduced atherosclerosis | ABCA1 protein levels (stabilization) (ABCA1): maintained at high levels
